Assay results published in the supplement of paper PMC9170038.

Tested on: K4 kissing-loop RNA reporter
Experiment: apparent KD of K4 kissing-loop reporter; higher = weaker reporter binding
Details: Eterna round: R107
Procedure: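 RNA-MaP round R107: designed RNA switches with theophylline, tryptophan, arginine or FMN aptamers are transcribed on-chip within common flanks. They are titrated with a labelled K4 kissing-loop RNA reporter in RNA-MaP buffer (100 mM Tris pH 7.5, 80 mM KCl, 4 mM MgCl2), without ligand or with the indicated ligand. Median apparent KD per design.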

[1] = input ligand: theophylline 20 uM
[2] = input ligand: tryptophan 2.4 mM
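Note: bound reporter read as fluorescence of individual clusters on recovered sequencing chips by microscopy, with normalized cluster intensities fitted with a binding model.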

Sequence	apparent KD of K4 kissing-loop reporter (input ligand: FMN 200 uM) [nM]	apparent KD of K4 kissing-loop reporter (input ligand: arginine 13.2 mM) [nM]	apparent KD of K4 kissing-loop reporter (input ligand: none) [nM]	apparent KD of K4 kissing-loop reporter [1] [nM]	apparent KD of K4 kissing-loop reporter [2] [nM]
GUAGACGUACCUUCAGUGAUGUUGAAGGAUACCAGAUGUUACCACAUCCCUUGGCAGCCUUGGGAUAACAGUGAGUCGGAAUAUG [Uslediti]	176	136	158	166	142
GGCCGGAAGGCGAGCGCUCCCACUCCGGAAGGAGCGCCCGCAAGGGCAGGUAGGUCGCCGGAGUGAUGUUCCGGUGGAGGGCUCG [#2 Exclusion - Arginine A Attempt #20 (Inspired by Omei)]	185	308	379	8.89	136
UUAUAUUUUAUAUUUAGUAGAGCUCUCGCUCGAGGACCGGUACGGCCGCCACUCGAGUGAUGUUCGAGUGGGAGAGCUCUACAUU [AK3.3 EXC Tryptophan A]	108	99.5	94.9	100	181
UUGUUUUACUGAAGGAGCGGCAAUUGAUACGUAGAUAUAGUGAUGUUAUAUAAGAUAGAGAGCCAGGUAGGUCGCAGAUUUGUUU [ExArgB.U]	221	193	188	183	173
UGUACCGAGUCAGGAUAUGGCGUCGAAAGACGAAUUCUAGUGAUGUUAGGGAUCUGCGAAAGCAGUCUAGAAGGGACUUGGUACU [FmnBS 26 U36+U68]	356	407	508	684	512
GCAGUGAUGUUGCGGAUGUACAGUGGGAUACGAGGACCGGUACGGCCGCCACUCGUACAGAACAAGCUAAUACAUCGAUAGGUGA [XII]	265	281	339	373	301
AGGAUCACGUCAGUGAUGUUGACAAGAGAUACCAGAGACGAAAGUCUCCCUUGGCAGCUCAUCGUGAUCCGUGACAAAGGUCACA [Omei KL hio A SS C v3]	262	135	143	155	189
CGGAUGUAGUGAUGUUAUAUUAGAUGUAGACGAGGACCGGUACGGCCGCCACUCGAAACGGCUACUAGCGCGUUGCGAGGUGUGC [ExTryptoA.CJ]	737	525	686	784	480
UGUCAUUGGUCGGCCGCCACUUCGUGUAGAGUGAUGUUUUGUAGGACGGAUCGAAAGAUCUGUCGAAGGACCGGGACCGAUGACU [FiskerMod 18 - Jieux - Same State - Tryptophan B]	500	189	459	336	1100
GCAGUGAUGUUGCUGAUGUGCAGUGGUAGUCGAGGACCGGUACGGCCGCCACUCGGUGAGAAUUUGCUAAUACAUCGAUAAGUGA [XVII]	1210	614	1280	858	904
CCCGUGGGUUCGAGAGGGCUUGUGGGAAGUAAGGAUAUUUAGGGAGAAAGAAGGUACUAUAGAAUAUAGUGAUGUUAUAUAUGGG [#07 K4 FMN A Same State]	402	435	454	347	203
GUCUCGAGUGAUGUUCGGGUCGAUUGGGAAGGAGCGCCCGGAAGGGCAGGUAGGUCGCCCGGACCGCGCGGGCAACCGCGCGGCC [#2 Same State - Arginine A Attempt #11 (HarryS)]	186	108	147	141	163
AACUUAAUUUAUAAGCAGUGAUGUUGCUUACGAGGACCGGUACGGCCGCCACUCGAUCGCAUUUAUGUCUUCAAUUAAUUCAUUA [JR_ExcTryptoA_Sub016]	178	196	197	237	195
ACUGGAAUUGUACUCCAGUGAUGUUGGAGGCAGGAUAUCCAGUAAAGGAGAAGGGCCAUCGCGCUAUUUGGCCGCAGGCGGCCAG [Acela]	147	113	128	177	150
GGGCCUCUGGCUGAUACCAGUGAUAAAGGGUAAGAGACAGGGAGUGAUGUUCCCUUUAGCCACCCUUGGCAGCAGUUUAAGUUUG [Exclusion Theophylline B GF 18]	84.8	82.8	85.5	86.6	77.3
AUUCUAUUGUGAAGGAGCGCGUAUAGUAGUGAUGUUACUAUAAUGAUAGAUACUUAAUUCUCGCAGGUAGGUCGCACAAUAUAUA [JR_Nu_ExcArginiB_Sub024]	117	77.5	98.8	85	89.8
UUAUCUAUAUUCGAUACCAGUACCCUGUGUGUUGAUCCUUUUAUAAGUGAUGUUUAUGAGUACCCUUGGCAGCGGGUAUGGGUUU [KL-XTheo-B17]	815	734	883	944	712
GCCUAGCAGGGAAGGAGCGGCAUAAGCAUAGAUAAUAUGCAGUUAGUGAUGUUAAUACUAUGCCAGGUAGGUCGCCCUGCUAGGC [KL-SSArg B7]	752	457	688	623	537
